*1 amine or outer side, *2 acyl side, *3 side chain or, on linkers, in order; H or OH if unused. Where no end group is shown, it is not given here. Side-chain parts run from the residue outwards. [ ]: non-standard residue; d: D form. The star is where a group is joined. γGlu = O=C(O)[C@H](CCC(=O)[*:2])N[*:1]; Stearoyl = CCCCCCCCCCCCCCCCCC(=O)*; Palmitoyl = CCCCCCCCCCCCCCCC(=O)*; d(αMeK) = C[C@@](N)(CCCCN)C(=O)O; αMeOrn = C[C@](N)(CCCN)C(=O)O; αMeK = C[C@](N)(CCCCN)C(=O)O; Api = NC1(C(=O)O)CCNCC1; Aib = CC(C)(N)C(=O)O Where only a bound is given, the exact number is not on record here.

This note sets out measurements from US20140221281A1 (Sanofi, published 2014).

Holding throughout (assay): cell-based or functional assay
For one assay, the target named is human GLP-1 receptor (human, UniProt P43220 24-463).
In the next assay the target is T1, human GIP receptor (human, UniProt P48546 22-466).
T1 sequence (looked up): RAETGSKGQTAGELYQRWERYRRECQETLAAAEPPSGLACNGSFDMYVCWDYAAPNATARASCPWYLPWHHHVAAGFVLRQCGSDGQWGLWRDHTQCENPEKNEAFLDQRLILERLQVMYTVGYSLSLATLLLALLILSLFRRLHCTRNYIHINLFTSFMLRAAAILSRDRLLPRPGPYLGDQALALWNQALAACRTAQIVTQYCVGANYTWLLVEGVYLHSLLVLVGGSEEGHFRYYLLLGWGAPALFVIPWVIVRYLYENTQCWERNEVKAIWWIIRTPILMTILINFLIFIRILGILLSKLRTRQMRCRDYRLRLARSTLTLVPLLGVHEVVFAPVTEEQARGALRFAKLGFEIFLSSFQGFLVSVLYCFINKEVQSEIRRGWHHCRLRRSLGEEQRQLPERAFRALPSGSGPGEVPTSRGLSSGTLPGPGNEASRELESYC

For a further assay, the target named is human glucagon receptor (human, UniProt P47871 26-477).
Sequence of human glucagon receptor (P47871 26-477): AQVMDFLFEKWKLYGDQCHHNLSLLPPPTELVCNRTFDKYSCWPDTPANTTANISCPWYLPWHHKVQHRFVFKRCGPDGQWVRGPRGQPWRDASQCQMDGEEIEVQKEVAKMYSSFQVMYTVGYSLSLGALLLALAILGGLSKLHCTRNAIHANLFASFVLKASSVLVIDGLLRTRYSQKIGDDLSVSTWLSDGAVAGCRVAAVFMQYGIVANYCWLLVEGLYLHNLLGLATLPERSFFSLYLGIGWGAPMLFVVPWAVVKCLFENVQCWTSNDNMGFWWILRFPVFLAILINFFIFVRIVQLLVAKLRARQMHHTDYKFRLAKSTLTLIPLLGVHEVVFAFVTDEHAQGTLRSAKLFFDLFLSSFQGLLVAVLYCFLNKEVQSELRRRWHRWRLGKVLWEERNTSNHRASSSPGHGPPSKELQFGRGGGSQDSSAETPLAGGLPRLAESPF

B1: SEQ ID NO: 10 (peptide)
peptide: Y[Aib]EGTFTSDLSIQK([γGlu-Palmitoyl])EERAA[αMeOrn]EFIEWLKNTGPSSGAPPPS-NH2
modifications: N-terminus assumed
SMILES: CCCCCCCCCCCCCCCC(=O)N[C@@H](CCC(=O)NCCCC[C@H](NC(=O)[C@H](CCC(N)=O)NC(=O)[C@@H](NC(=O)[C@H](CO)NC(=O)[C@H](CC(C)C)NC(=O)[C@H](CC(=O)O)NC(=O)[C@H](CO)NC(=O)[C@@H](NC(=O)[C@H](Cc1ccccc1)NC(=O)[C@@H](NC(=O)CNC(=O)[C@H](CCC(=O)O)NC(=O)C(C)(C)NC(=O)[C@@H](N)Cc1ccc(O)cc1)[C@@H](C)O)[C@@H](C)O)[C@@H](C)CC)C(=O)N[C@@H](CCC(=O)O)C(=O)N[C@@H](CCC(=O)O)C(=O)N[C@@H](CCCNC(=N)N)C(=O)N[C@@H](C)C(=O)N[C@@H](C)C(=O)N[C@@](C)(CCCN)C(=O)N[C@@H](CCC(=O)O)C(=O)N[C@@H](Cc1ccccc1)C(=O)N[C@H](C(=O)N[C@@H](CCC(=O)O)C(=O)N[C@@H](Cc1c[nH]c2ccccc12)C(=O)N[C@@H](CC(C)C)C(=O)N[C@@H](CCCCN)C(=O)N[C@@H](CC(N)=O)C(=O)N[C@H](C(=O)NCC(=O)N1CCC[C@H]1C(=O)N[C@@H](CO)C(=O)N[C@@H](CO)C(=O)NCC(=O)N[C@@H](C)C(=O)N1CCC[C@H]1C(=O)N1CCC[C@H]1C(=O)N1CCC[C@H]1C(=O)N[C@@H](CO)C(N)=O)[C@@H](C)O)[C@@H](C)CC)C(=O)O
In the case of B1, in the assay with human GLP-1 receptor, the “EC50 hGLP-1 R [pM] (cAMP formation)” value was 4.9 pM. In addition, in the assay with human GIP receptor, the “EC50 hGIP R [pM] (cAMP formation)” value turned out to be 7.1 pM. The “EC50 hGLUC R [pM] (cAMP formation)” value in the assay with human glucagon receptor turned out to be 10400 pM.

B2: SEQ ID NO: 14 (peptide)
peptide: Y[Aib]EGTFTSDLSIQK([γGlu-Stearoyl])DERAA[αMeK]EFIEWLKNTGPSSGAPPPS-NH2
modifications: N-terminus assumed
SMILES: CCCCCCCCCCCCCCCCCC(=O)N[C@@H](CCC(=O)NCCCC[C@H](NC(=O)[C@H](CCC(N)=O)NC(=O)[C@@H](NC(=O)[C@H](CO)NC(=O)[C@H](CC(C)C)NC(=O)[C@H](CC(=O)O)NC(=O)[C@H](CO)NC(=O)[C@@H](NC(=O)[C@H](Cc1ccccc1)NC(=O)[C@@H](NC(=O)CNC(=O)[C@H](CCC(=O)O)NC(=O)C(C)(C)NC(=O)[C@@H](N)Cc1ccc(O)cc1)[C@@H](C)O)[C@@H](C)O)[C@@H](C)CC)C(=O)N[C@@H](CC(=O)O)C(=O)N[C@@H](CCC(=O)O)C(=O)N[C@@H](CCCNC(=N)N)C(=O)N[C@@H](C)C(=O)N[C@@H](C)C(=O)N[C@@](C)(CCCCN)C(=O)N[C@@H](CCC(=O)O)C(=O)N[C@@H](Cc1ccccc1)C(=O)N[C@H](C(=O)N[C@@H](CCC(=O)O)C(=O)N[C@@H](Cc1c[nH]c2ccccc12)C(=O)N[C@@H](CC(C)C)C(=O)N[C@@H](CCCCN)C(=O)N[C@@H](CC(N)=O)C(=O)N[C@H](C(=O)NCC(=O)N1CCC[C@H]1C(=O)N[C@@H](CO)C(=O)N[C@@H](CO)C(=O)NCC(=O)N[C@@H](C)C(=O)N1CCC[C@H]1C(=O)N1CCC[C@H]1C(=O)N1CCC[C@H]1C(=O)N[C@@H](CO)C(N)=O)[C@@H](C)O)[C@@H](C)CC)C(=O)O
Turning to B2, the “EC50 hGLP-1 R [pM] (cAMP formation)” value with human GLP-1 receptor worked out at 7.2 pM. The “EC50 hGIP R [pM] (cAMP formation)” value with human GIP receptor stood at 4.5 pM. In addition, in the assay with human glucagon receptor, the “EC50 hGLUC R [pM] (cAMP formation)” value was 4730 pM.

B3: SEQ ID NO: 9 (peptide)
peptide: Y[Aib]EGTFTSDLSIQK([γGlu-Palmitoyl])EERAA[d(αMeK)]EFIEWLKNTGPSSGAPPPS-NH2
modifications: N-terminus assumed
SMILES: CCCCCCCCCCCCCCCC(=O)N[C@@H](CCC(=O)NCCCC[C@H](NC(=O)[C@H](CCC(N)=O)NC(=O)[C@@H](NC(=O)[C@H](CO)NC(=O)[C@H](CC(C)C)NC(=O)[C@H](CC(=O)O)NC(=O)[C@H](CO)NC(=O)[C@@H](NC(=O)[C@H](Cc1ccccc1)NC(=O)[C@@H](NC(=O)CNC(=O)[C@H](CCC(=O)O)NC(=O)C(C)(C)NC(=O)[C@@H](N)Cc1ccc(O)cc1)[C@@H](C)O)[C@@H](C)O)[C@@H](C)CC)C(=O)N[C@@H](CCC(=O)O)C(=O)N[C@@H](CCC(=O)O)C(=O)N[C@@H](CCCNC(=N)N)C(=O)N[C@@H](C)C(=O)N[C@@H](C)C(=O)N[C@](C)(CCCCN)C(=O)N[C@@H](CCC(=O)O)C(=O)N[C@@H](Cc1ccccc1)C(=O)N[C@H](C(=O)N[C@@H](CCC(=O)O)C(=O)N[C@@H](Cc1c[nH]c2ccccc12)C(=O)N[C@@H](CC(C)C)C(=O)N[C@@H](CCCCN)C(=O)N[C@@H](CC(N)=O)C(=O)N[C@H](C(=O)NCC(=O)N1CCC[C@H]1C(=O)N[C@@H](CO)C(=O)N[C@@H](CO)C(=O)NCC(=O)N[C@@H](C)C(=O)N1CCC[C@H]1C(=O)N1CCC[C@H]1C(=O)N1CCC[C@H]1C(=O)N[C@@H](CO)C(N)=O)[C@@H](C)O)[C@@H](C)CC)C(=O)O
B3: the “EC50 hGLP-1 R [pM] (cAMP formation)” value with human GLP-1 receptor is 13.5 pM. In addition, in the assay with human GIP receptor, the “EC50 hGIP R [pM] (cAMP formation)” value turned out to be 93.2 pM. Also, in the assay with human glucagon receptor, the “EC50 hGLUC R [pM] (cAMP formation)” value is over 1e+06 pM.

B4: SEQ ID NO: 13 (peptide)
peptide: Y[Aib]QGTFTSDLSIQK([γGlu-Stearoyl])DEQRA[d(αMeK)]EFIEWLKSGGPSSGAPPPS-NH2
modifications: N-terminus assumed
SMILES: CCCCCCCCCCCCCCCCCC(=O)N[C@@H](CCC(=O)NCCCC[C@H](NC(=O)[C@H](CCC(N)=O)NC(=O)[C@@H](NC(=O)[C@H](CO)NC(=O)[C@H](CC(C)C)NC(=O)[C@H](CC(=O)O)NC(=O)[C@H](CO)NC(=O)[C@@H](NC(=O)[C@H](Cc1ccccc1)NC(=O)[C@@H](NC(=O)CNC(=O)[C@H](CCC(N)=O)NC(=O)C(C)(C)NC(=O)[C@@H](N)Cc1ccc(O)cc1)[C@@H](C)O)[C@@H](C)O)[C@@H](C)CC)C(=O)N[C@@H](CC(=O)O)C(=O)N[C@@H](CCC(=O)O)C(=O)N[C@@H](CCC(N)=O)C(=O)N[C@@H](CCCNC(=N)N)C(=O)N[C@@H](C)C(=O)N[C@](C)(CCCCN)C(=O)N[C@@H](CCC(=O)O)C(=O)N[C@@H](Cc1ccccc1)C(=O)N[C@H](C(=O)N[C@@H](CCC(=O)O)C(=O)N[C@@H](Cc1c[nH]c2ccccc12)C(=O)N[C@@H](CC(C)C)C(=O)N[C@@H](CCCCN)C(=O)N[C@@H](CO)C(=O)NCC(=O)NCC(=O)N1CCC[C@H]1C(=O)N[C@@H](CO)C(=O)N[C@@H](CO)C(=O)NCC(=O)N[C@@H](C)C(=O)N1CCC[C@H]1C(=O)N1CCC[C@H]1C(=O)N1CCC[C@H]1C(=O)N[C@@H](CO)C(N)=O)[C@@H](C)CC)C(=O)O
Consider B4, for which the “EC50 hGLP-1 R [pM] (cAMP formation)” value in the assay with human GLP-1 receptor worked out at 13.6 pM. Moreover, in the assay with human GIP receptor, the “EC50 hGIP R [pM] (cAMP formation)” value worked out at 33.1 pM. Moreover, the “EC50 hGLUC R [pM] (cAMP formation)” value with human glucagon receptor amounted to 202 pM.

B5: SEQ ID NO: 8 (peptide)
peptide: Y[Aib]EGTFTSDLSIQK([γGlu-Palmitoyl])EERAA[Api]EFIEWLKNTGPSSGAPPPS-NH2
modifications: N-terminus assumed
SMILES: CCCCCCCCCCCCCCCC(=O)N[C@@H](CCC(=O)NCCCC[C@H](NC(=O)[C@H](CCC(N)=O)NC(=O)[C@@H](NC(=O)[C@H](CO)NC(=O)[C@H](CC(C)C)NC(=O)[C@H](CC(=O)O)NC(=O)[C@H](CO)NC(=O)[C@@H](NC(=O)[C@H](Cc1ccccc1)NC(=O)[C@@H](NC(=O)CNC(=O)[C@H](CCC(=O)O)NC(=O)C(C)(C)NC(=O)[C@@H](N)Cc1ccc(O)cc1)[C@@H](C)O)[C@@H](C)O)[C@@H](C)CC)C(=O)N[C@@H](CCC(=O)O)C(=O)N[C@@H](CCC(=O)O)C(=O)N[C@@H](CCCNC(=N)N)C(=O)N[C@@H](C)C(=O)N[C@@H](C)C(=O)NC1(C(=O)N[C@@H](CCC(=O)O)C(=O)N[C@@H](Cc2ccccc2)C(=O)N[C@H](C(=O)N[C@@H](CCC(=O)O)C(=O)N[C@@H](Cc2c[nH]c3ccccc23)C(=O)N[C@@H](CC(C)C)C(=O)N[C@@H](CCCCN)C(=O)N[C@@H](CC(N)=O)C(=O)N[C@H](C(=O)NCC(=O)N2CCC[C@H]2C(=O)N[C@@H](CO)C(=O)N[C@@H](CO)C(=O)NCC(=O)N[C@@H](C)C(=O)N2CCC[C@H]2C(=O)N2CCC[C@H]2C(=O)N2CCC[C@H]2C(=O)N[C@@H](CO)C(N)=O)[C@@H](C)O)[C@@H](C)CC)CCNCC1)C(=O)O
Regarding B5, the “EC50 hGLP-1 R [pM] (cAMP formation)” value with human GLP-1 receptor was found to be 4.7 pM. For the same molecule, the “EC50 hGIP R [pM] (cAMP formation)” value in the assay with human GIP receptor stood at 16.3 pM. Also, in the assay with human glucagon receptor, the “EC50 hGLUC R [pM] (cAMP formation)” value is 34700 pM.

B6: SEQ ID NO: 12 (peptide)
peptide: Y[Aib]QGTFTSDLSKQK([γGlu-Stearoyl])DEQRA[αMeK]EFIEWLKSGGPSSGAPPPS-NH2
modifications: N-terminus assumed
SMILES: CCCCCCCCCCCCCCCCCC(=O)N[C@@H](CCC(=O)NCCCC[C@H](NC(=O)[C@H](CCC(N)=O)NC(=O)[C@H](CCCCN)NC(=O)[C@H](CO)NC(=O)[C@H](CC(C)C)NC(=O)[C@H](CC(=O)O)NC(=O)[C@H](CO)NC(=O)[C@@H](NC(=O)[C@H](Cc1ccccc1)NC(=O)[C@@H](NC(=O)CNC(=O)[C@H](CCC(N)=O)NC(=O)C(C)(C)NC(=O)[C@@H](N)Cc1ccc(O)cc1)[C@@H](C)O)[C@@H](C)O)C(=O)N[C@@H](CC(=O)O)C(=O)N[C@@H](CCC(=O)O)C(=O)N[C@@H](CCC(N)=O)C(=O)N[C@@H](CCCNC(=N)N)C(=O)N[C@@H](C)C(=O)N[C@@](C)(CCCCN)C(=O)N[C@@H](CCC(=O)O)C(=O)N[C@@H](Cc1ccccc1)C(=O)N[C@H](C(=O)N[C@@H](CCC(=O)O)C(=O)N[C@@H](Cc1c[nH]c2ccccc12)C(=O)N[C@@H](CC(C)C)C(=O)N[C@@H](CCCCN)C(=O)N[C@@H](CO)C(=O)NCC(=O)NCC(=O)N1CCC[C@H]1C(=O)N[C@@H](CO)C(=O)N[C@@H](CO)C(=O)NCC(=O)N[C@@H](C)C(=O)N1CCC[C@H]1C(=O)N1CCC[C@H]1C(=O)N1CCC[C@H]1C(=O)N[C@@H](CO)C(N)=O)[C@@H](C)CC)C(=O)O
With B6, the “EC50 hGLP-1 R [pM] (cAMP formation)” value in the assay with human GLP-1 receptor is 11.6 pM. The “EC50 hGIP R [pM] (cAMP formation)” value with human GIP receptor came out at 27 pM.
